Assay results: patent publication US8247195

Biological target: H-NS (Salmonella enterica serovar Typhimurium 14028s) (UniProt A0A0F6B244)
Settings: ChIP/Q-PCR, formaldehyde crosslinked, anti-HA; value given as example of copies recovered per marA copy

Chain of UniProt A0A0F6B244 (A0A0F6B244 whole entry): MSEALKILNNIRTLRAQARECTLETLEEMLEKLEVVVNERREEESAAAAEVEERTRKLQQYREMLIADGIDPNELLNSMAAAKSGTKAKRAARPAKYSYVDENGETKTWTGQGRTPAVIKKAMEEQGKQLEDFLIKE

With proV the binding signal (fold enrichment vs marA) was 53.6.
